Numbered stars: 1 amine (or outer) side, 2 acyl side, 3 side chain; on linkers, the order of the positions; unused ones are H or OH. Bridge positions count the residues as written; N and C are the ends. Square brackets hold non-standard residues; d marks the D form. Side chains are listed from the residue outwards. Ends that are not written are not given here. * marks the point of attachment. C20 diacid = O=C(O)CCCCCCCCCCCCCCCCCCC(=O)*; γGlu = O=C(O)[C@H](CCC(=O)[*:2])N[*:1]

As usually defined, the IC50 is the concentration that gives 50% inhibition.

The test has as its target T1, human amylin receptor (amylin 3(a) receptor: human calcitonin receptor co-expressed with RAMP-3) (human, UniProt P30988 25-474; O60896 24-148, limits assumed).
T1 construct: whole, on cells; Used as cell membranes prepared from the Amylin 3(a)/CRE-luc BHK cells (Assay V); also called hAmylin-R; hAmylinR
T1 sequence (looked up) 1: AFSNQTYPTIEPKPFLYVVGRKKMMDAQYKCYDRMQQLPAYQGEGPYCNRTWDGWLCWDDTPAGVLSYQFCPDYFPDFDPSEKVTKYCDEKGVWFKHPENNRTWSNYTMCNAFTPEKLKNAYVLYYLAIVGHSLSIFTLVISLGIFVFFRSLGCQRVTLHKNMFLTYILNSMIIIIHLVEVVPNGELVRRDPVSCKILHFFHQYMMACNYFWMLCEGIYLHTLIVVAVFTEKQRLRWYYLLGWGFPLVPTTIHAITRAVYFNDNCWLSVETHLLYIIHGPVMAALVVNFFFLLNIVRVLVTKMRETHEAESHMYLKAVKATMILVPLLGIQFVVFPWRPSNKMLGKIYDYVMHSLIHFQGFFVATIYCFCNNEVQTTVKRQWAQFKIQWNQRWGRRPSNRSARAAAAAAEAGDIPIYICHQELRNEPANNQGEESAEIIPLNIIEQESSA
T1 sequence (looked up) 2: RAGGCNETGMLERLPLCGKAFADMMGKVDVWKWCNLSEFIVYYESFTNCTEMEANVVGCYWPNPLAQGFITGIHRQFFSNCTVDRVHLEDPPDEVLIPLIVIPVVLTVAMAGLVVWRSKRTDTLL
In words: SPA displacement of 125I-rat amylin, hAmylin 3(a) receptor membranes. An outline of the steps: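 Membranes from BHK Amylin 3(a)/CRE-luc cells (35 ng/μL final) were mixed with SPA beads and test compounds in 50 mM Hepes pH 7.4 with 1 mM CaCl2, 5 mM MgCl₂, 0.1% OA and 0.02% Tween20. Incubation ran 120 min at 25° C with shaking; IC₅₀ came from one-site competition fitting.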
Background: In a radioligand displacement assay an active substance lowers the binding of a labelled ligand.

B1: N^-1-[(4S)-4-carboxy-4-(19-carboxynonadecanoylamino)butanoyl]-Gly[Arg1,Ala14,Arg17,Pro21,Pro27,His34]-h-amylin (peptide)
peptide: {C20 diacid-γGlu}-GRCNTATCATQRLAAFLRHSSPNFGAIPSSTNVGHNTY-NH2
modifications: disulfide 3-8
SMILES: CC[C@H](C)[C@H](NC(=O)[C@H](C)NC(=O)CNC(=O)[C@H](Cc1ccccc1)NC(=O)[C@H](CC(N)=O)NC(=O)[C@@H]1CCCN1C(=O)[C@H](CO)NC(=O)[C@H](CO)NC(=O)[C@H](Cc1c[nH]cn1)NC(=O)[C@H](CCCNC(=N)N)NC(=O)[C@H](CC(C)C)NC(=O)[C@H](Cc1ccccc1)NC(=O)[C@H](C)NC(=O)[C@H](C)NC(=O)[C@H](CC(C)C)NC(=O)[C@H](CCCNC(=N)N)NC(=O)[C@H](CCC(N)=O)NC(=O)[C@@H](NC(=O)[C@H](C)NC(=O)[C@@H]1CSSC[C@H](NC(=O)[C@H](CCCNC(=N)N)NC(=O)CNC(=O)CC[C@H](NC(=O)CCCCCCCCCCCCCCCCCCC(=O)O)C(=O)O)C(=O)N[C@@H](CC(N)=O)C(=O)N[C@@H]([C@@H](C)O)C(=O)N[C@@H](C)C(=O)N[C@@H]([C@@H](C)O)C(=O)N1)[C@@H](C)O)C(=O)N1CCC[C@H]1C(=O)N[C@@H](CO)C(=O)N[C@@H](CO)C(=O)N[C@H](C(=O)N[C@@H](CC(N)=O)C(=O)N[C@H](C(=O)NCC(=O)N[C@@H](Cc1c[nH]cn1)C(=O)N[C@@H](CC(N)=O)C(=O)N[C@H](C(=O)N[C@@H](Cc1ccc(O)cc1)C(N)=O)[C@@H](C)O)C(C)C)[C@@H](C)O
Take B1: the IC50 amounted to 0.426 nM.

B2: N^ε1-[(4S)-4-carboxy-4-(19-carboxynonadecanoylamino)butanoyl]-[Glu14,Arg17,Pro21,Pro27,Pro34,Pro37]-h-amylin (peptide)
peptide: K([γGlu-C20 diacid])CNTATCATQRLAEFLRHSSPNFGAIPSSTNVGPNTP-NH2
modifications: disulfide 2-7; N-terminus assumed
SMILES: CC[C@H](C)[C@H](NC(=O)[C@H](C)NC(=O)CNC(=O)[C@H](Cc1ccccc1)NC(=O)[C@H](CC(N)=O)NC(=O)[C@@H]1CCCN1C(=O)[C@H](CO)NC(=O)[C@H](CO)NC(=O)[C@H](Cc1c[nH]cn1)NC(=O)[C@H](CCCNC(=N)N)NC(=O)[C@H](CC(C)C)NC(=O)[C@H](Cc1ccccc1)NC(=O)[C@H](CCC(=O)O)NC(=O)[C@H](C)NC(=O)[C@H](CC(C)C)NC(=O)[C@H](CCCNC(=N)N)NC(=O)[C@H](CCC(N)=O)NC(=O)[C@@H](NC(=O)[C@H](C)NC(=O)[C@@H]1CSSC[C@H](NC(=O)[C@@H](N)CCCCNC(=O)CC[C@H](NC(=O)CCCCCCCCCCCCCCCCCCC(=O)O)C(=O)O)C(=O)N[C@@H](CC(N)=O)C(=O)N[C@@H]([C@@H](C)O)C(=O)N[C@@H](C)C(=O)N[C@@H]([C@@H](C)O)C(=O)N1)[C@@H](C)O)C(=O)N1CCC[C@H]1C(=O)N[C@@H](CO)C(=O)N[C@@H](CO)C(=O)N[C@H](C(=O)N[C@@H](CC(N)=O)C(=O)N[C@H](C(=O)NCC(=O)N1CCC[C@H]1C(=O)N[C@@H](CC(N)=O)C(=O)N[C@H](C(=O)N1CCC[C@H]1C(N)=O)[C@@H](C)O)C(C)C)[C@@H](C)O
On to B2, for which the IC50 is 0.214 nM.

B3: N^ε1-[(4S)-4-carboxy-4-[[(4S)-4-carboxy-4-(19-carboxynonadecanoylamino)butanoyl]amino]butanoyl]-[Glu14,Arg17,Pro21,Pro27,Pro34,Phe37]-h-amylin (peptide)
peptide: K([γGlu-γGlu-C20 diacid])CNTATCATQRLAEFLRHSSPNFGAIPSSTNVGPNTF-NH2
modifications: disulfide 2-7; N-terminus assumed
SMILES: CC[C@H](C)[C@H](NC(=O)[C@H](C)NC(=O)CNC(=O)[C@H](Cc1ccccc1)NC(=O)[C@H](CC(N)=O)NC(=O)[C@@H]1CCCN1C(=O)[C@H](CO)NC(=O)[C@H](CO)NC(=O)[C@H](Cc1c[nH]cn1)NC(=O)[C@H](CCCNC(=N)N)NC(=O)[C@H](CC(C)C)NC(=O)[C@H](Cc1ccccc1)NC(=O)[C@H](CCC(=O)O)NC(=O)[C@H](C)NC(=O)[C@H](CC(C)C)NC(=O)[C@H](CCCNC(=N)N)NC(=O)[C@H](CCC(N)=O)NC(=O)[C@@H](NC(=O)[C@H](C)NC(=O)[C@@H]1CSSC[C@H](NC(=O)[C@@H](N)CCCCNC(=O)CC[C@H](NC(=O)CC[C@H](NC(=O)CCCCCCCCCCCCCCCCCCC(=O)O)C(=O)O)C(=O)O)C(=O)N[C@@H](CC(N)=O)C(=O)N[C@@H]([C@@H](C)O)C(=O)N[C@@H](C)C(=O)N[C@@H]([C@@H](C)O)C(=O)N1)[C@@H](C)O)C(=O)N1CCC[C@H]1C(=O)N[C@@H](CO)C(=O)N[C@@H](CO)C(=O)N[C@H](C(=O)N[C@@H](CC(N)=O)C(=O)N[C@H](C(=O)NCC(=O)N1CCC[C@H]1C(=O)N[C@@H](CC(N)=O)C(=O)N[C@H](C(=O)N[C@@H](Cc1ccccc1)C(N)=O)[C@@H](C)O)C(C)C)[C@@H](C)O
With B3, the IC50 amounted to 0.152 nM.

B4: N^ε1-[(4S)-4-carboxy-4-[[(4S)-4-carboxy-4-(19-carboxynonadecanoylamino)butanoyl]amino]butanoyl]-[Glu14,Arg17,Pro21,Pro27,Pro34,Glu35,Pro37]-h-amylin (peptide)
peptide: K([γGlu-γGlu-C20 diacid])CNTATCATQRLAEFLRHSSPNFGAIPSSTNVGPETP-NH2
modifications: disulfide 2-7; N-terminus assumed
SMILES: CC[C@H](C)[C@H](NC(=O)[C@H](C)NC(=O)CNC(=O)[C@H](Cc1ccccc1)NC(=O)[C@H](CC(N)=O)NC(=O)[C@@H]1CCCN1C(=O)[C@H](CO)NC(=O)[C@H](CO)NC(=O)[C@H](Cc1c[nH]cn1)NC(=O)[C@H](CCCNC(=N)N)NC(=O)[C@H](CC(C)C)NC(=O)[C@H](Cc1ccccc1)NC(=O)[C@H](CCC(=O)O)NC(=O)[C@H](C)NC(=O)[C@H](CC(C)C)NC(=O)[C@H](CCCNC(=N)N)NC(=O)[C@H](CCC(N)=O)NC(=O)[C@@H](NC(=O)[C@H](C)NC(=O)[C@@H]1CSSC[C@H](NC(=O)[C@@H](N)CCCCNC(=O)CC[C@H](NC(=O)CC[C@H](NC(=O)CCCCCCCCCCCCCCCCCCC(=O)O)C(=O)O)C(=O)O)C(=O)N[C@@H](CC(N)=O)C(=O)N[C@@H]([C@@H](C)O)C(=O)N[C@@H](C)C(=O)N[C@@H]([C@@H](C)O)C(=O)N1)[C@@H](C)O)C(=O)N1CCC[C@H]1C(=O)N[C@@H](CO)C(=O)N[C@@H](CO)C(=O)N[C@H](C(=O)N[C@@H](CC(N)=O)C(=O)N[C@H](C(=O)NCC(=O)N1CCC[C@H]1C(=O)N[C@@H](CCC(=O)O)C(=O)N[C@H](C(=O)N1CCC[C@H]1C(N)=O)[C@@H](C)O)C(C)C)[C@@H](C)O
As for B4, the IC50 was found to be 0.533 nM.

B5: N^ε1-[(4S)-4-carboxy-4-(19-carboxynonadecanoylamino)butanoyl]-[His14,Arg17,Pro21,Pro27,Pro34,Pro37]-h-amylin (peptide)
peptide: K([γGlu-C20 diacid])CNTATCATQRLAHFLRHSSPNFGAIPSSTNVGPNTP-NH2
modifications: disulfide 2-7; N-terminus assumed
SMILES: CC[C@H](C)[C@H](NC(=O)[C@H](C)NC(=O)CNC(=O)[C@H](Cc1ccccc1)NC(=O)[C@H](CC(N)=O)NC(=O)[C@@H]1CCCN1C(=O)[C@H](CO)NC(=O)[C@H](CO)NC(=O)[C@H](Cc1c[nH]cn1)NC(=O)[C@H](CCCNC(=N)N)NC(=O)[C@H](CC(C)C)NC(=O)[C@H](Cc1ccccc1)NC(=O)[C@H](Cc1c[nH]cn1)NC(=O)[C@H](C)NC(=O)[C@H](CC(C)C)NC(=O)[C@H](CCCNC(=N)N)NC(=O)[C@H](CCC(N)=O)NC(=O)[C@@H](NC(=O)[C@H](C)NC(=O)[C@@H]1CSSC[C@H](NC(=O)[C@@H](N)CCCCNC(=O)CC[C@H](NC(=O)CCCCCCCCCCCCCCCCCCC(=O)O)C(=O)O)C(=O)N[C@@H](CC(N)=O)C(=O)N[C@@H]([C@@H](C)O)C(=O)N[C@@H](C)C(=O)N[C@@H]([C@@H](C)O)C(=O)N1)[C@@H](C)O)C(=O)N1CCC[C@H]1C(=O)N[C@@H](CO)C(=O)N[C@@H](CO)C(=O)N[C@H](C(=O)N[C@@H](CC(N)=O)C(=O)N[C@H](C(=O)NCC(=O)N1CCC[C@H]1C(=O)N[C@@H](CC(N)=O)C(=O)N[C@H](C(=O)N1CCC[C@H]1C(N)=O)[C@@H](C)O)C(C)C)[C@@H](C)O
For B5, the IC50 is 0.131 nM. Next, K([γGlu-γGlu-C20 diacid])CNTATCATQRLAEFLRHSSPNFGAIPSSTNVGPHTY-NH2 (disulfide 2-7 (inferred)): 0.377 nM.

B6: N^ε1-[(4S)-4-carboxy-4-[[(4S)-4-carboxy-4-(19-carboxynonadecanoylamino)butanoyl]amino]butanoyl]-[D-Asp14,Arg17,Pro21,Pro27,Arg35]-h-amylin (peptide)
peptide: K([γGlu-γGlu-C20 diacid])CNTATCATQRLA[dD]FLRHSSPNFGAIPSSTNVGSRTY-NH2
modifications: disulfide 2-7; N-terminus assumed
SMILES: CC[C@H](C)[C@H](NC(=O)[C@H](C)NC(=O)CNC(=O)[C@H](Cc1ccccc1)NC(=O)[C@H](CC(N)=O)NC(=O)[C@@H]1CCCN1C(=O)[C@H](CO)NC(=O)[C@H](CO)NC(=O)[C@H](Cc1c[nH]cn1)NC(=O)[C@H](CCCNC(=N)N)NC(=O)[C@H](CC(C)C)NC(=O)[C@H](Cc1ccccc1)NC(=O)[C@@H](CC(=O)O)NC(=O)[C@H](C)NC(=O)[C@H](CC(C)C)NC(=O)[C@H](CCCNC(=N)N)NC(=O)[C@H](CCC(N)=O)NC(=O)[C@@H](NC(=O)[C@H](C)NC(=O)[C@@H]1CSSC[C@H](NC(=O)[C@@H](N)CCCCNC(=O)CC[C@H](NC(=O)CC[C@H](NC(=O)CCCCCCCCCCCCCCCCCCC(=O)O)C(=O)O)C(=O)O)C(=O)N[C@@H](CC(N)=O)C(=O)N[C@@H]([C@@H](C)O)C(=O)N[C@@H](C)C(=O)N[C@@H]([C@@H](C)O)C(=O)N1)[C@@H](C)O)C(=O)N1CCC[C@H]1C(=O)N[C@@H](CO)C(=O)N[C@@H](CO)C(=O)N[C@H](C(=O)N[C@@H](CC(N)=O)C(=O)N[C@H](C(=O)NCC(=O)N[C@@H](CO)C(=O)N[C@@H](CCCNC(=N)N)C(=O)N[C@H](C(=O)N[C@@H](Cc1ccc(O)cc1)C(N)=O)[C@@H](C)O)C(C)C)[C@@H](C)O
As for B6, the IC50 amounted to 0.365 nM.

In the case of K([γGlu-γGlu-C20 diacid])CNTATCATQRLADFLRHSSPNFGAIPSSTNVGPRTY-NH2 (disulfide 2-7, also called compound 130), the IC50 stood at 0.453 nM.

(Values after patent US20140087995A1 (published 2014).)
